Assay results taken from patent EP2966448B1, “METHOD FOR THE PREDICTION OR PROGNOSIS OF THE RESPONSE OF A HUMAN SUBJECT SUFFERING FROM CANCER TO TREATMENT WITH AN ANTAGONIST OF THE NK1 RECEPTOR” (priority 2013, dated 2014).

Molecular target: NK1 receptor (human) (UniProt P25103)
Assay: cell-based or functional assay

NK1 receptor (human), sequence (P25103 87-407): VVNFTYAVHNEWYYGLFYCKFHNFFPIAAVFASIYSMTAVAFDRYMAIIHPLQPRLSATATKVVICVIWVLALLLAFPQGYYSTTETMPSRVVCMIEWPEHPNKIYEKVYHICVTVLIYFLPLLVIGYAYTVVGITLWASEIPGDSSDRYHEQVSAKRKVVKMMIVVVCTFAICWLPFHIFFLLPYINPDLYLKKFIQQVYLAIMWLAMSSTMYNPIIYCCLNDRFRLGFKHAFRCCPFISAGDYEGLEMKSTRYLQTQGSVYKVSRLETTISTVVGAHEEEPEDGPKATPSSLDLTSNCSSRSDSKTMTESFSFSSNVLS

antibody against NK1 receptor (Sigma-Aldrich, catalogue number S8305)
28%: Percentage of inhibition of cell cultures; Melanoma (Nodular Melanoma); cases without presence of ERK | Percentage of inhibition of cell cultures; Urinary bladder carcinoma (transitional cell carcinoma); cases without presence of ERK
94%: Percentage of inhibition of cell cultures; Lung carcinoma (non small cell type); Group 3 (expression in more than 80% of the cells) | Percentage of inhibition of cell cultures; Lung carcinoma (small cell lung carcinoma); cases with presence of AKT | Percentage of inhibition of cell cultures; Lung carcinoma (small cell lung carcinoma); cases with presence of ERK | Percentage of inhibition of cell cultures; Lung carcinoma (small cell type); Intensity grade 3 | Percentage of inhibition of cell cultures; Non Hodgkin Lymphoma T (diffuse T cell lymphoma); cases with presence of AKT | Percentage of inhibition of cell cultures; Pancreatic carcinoma (Adenocarcinoma); cases with presence of ERK | Percentage of inhibition of cell cultures; Pancreatic carcinoma (Adenocarcinoma); cases without presence of AKT | Percentage of inhibition of cell cultures; Pancreatic carcinoma (Adenocarcinoma); cases without presence of ERK | Percentage of inhibition of cell cultures; Renal cell carcinoma (clear cell renal cell carcinoma); cases with presence of AKT | Percentage of inhibition of cell cultures; Renal cell carcinoma; Group 3 (expression in more than 80% of the cells) | Percentage of inhibition of cell cultures; Thyroid carcinoma (papillary type); Group 3 (expression in more than 80% of the cells) | Percentage of inhibition of cell cultures; Thyroid carcinoma (papillary type); Intensity grade 3
90%: Percentage of inhibition of cell cultures; Melanoma (Nodular Melanoma); cases with presence of ERK | Percentage of inhibition of cell cultures; Prostate carcinoma; cases with presence of AKT | Percentage of inhibition of cell cultures; Prostate carcinoma; cases with presence of ERK | Percentage of inhibition of cell cultures; Undifferentiated Pleomorphic Sarcoma (malignant fibrous histiocytoma grade 3); cases with presence of AKT | Percentage of inhibition of cell cultures; Undifferentiated Pleomorphic Sarcoma (malignant fibrous histiocytoma grade 3); cases with presence of ERK
93%: Percentage of inhibition of cell cultures; Neuroblastoma; Intensity grade 3 | Percentage of inhibition of cell cultures; Pancreatic carcinoma; Intensity grade 3 | Percentage of inhibition of cell cultures; Prostate carcinoma; Intensity grade 3
24%: Percentage of inhibition of cell cultures; Lung carcinoma (non small cell type); Intensity grade 1 | Percentage of inhibition of cell cultures; Lung carcinoma (small cell lung carcinoma); cases without presence of AKT | Percentage of inhibition of cell cultures; Lung carcinoma (small cell type); Group 1 (expression in less than 20% of the cells) | Percentage of inhibition of cell cultures; Melanoma; Group 1 (expression in less than 20% of the cells) | Percentage of inhibition of cell cultures; Non Hodgkin Lymphoma B (diffuse B cell lymphoma); cases without presence of AKT | Percentage of inhibition of cell cultures; Ovarian carcinoma (Adenocarcinoma); cases without presence of AKT | Percentage of inhibition of cell cultures; Ovarian carcinoma (Adenocarcinoma); cases without presence of ERK | Percentage of inhibition of cell cultures; Ovarian carcinoma; Group 1 (expression in less than 20% of the cells) | Percentage of inhibition of cell cultures; Prostate carcinoma; Intensity grade 1 | Percentage of inhibition of cell cultures; Thyroid carcinoma (follicular carcinoma); cases without presence of AKT | Percentage of inhibition of cell cultures; Thyroid carcinoma (papillary carcinoma); cases without presence of AKT | Percentage of inhibition of cell cultures; Thyroid carcinoma (papillary type); Intensity grade 1
89%: Percentage of inhibition of cell cultures; Thyroid carcinoma (papillary carcinoma); cases with presence of AKT | Percentage of inhibition of cell cultures; Thyroid carcinoma (papillary carcinoma); cases with presence of ERK
22%: Percentage of inhibition of cell cultures; Malignant Fibrous Histiocytoma.; Group 1 (expression in less than 20% of the cells) | Percentage of inhibition of cell cultures; Neuroblastoma; Group 1 (expression in less than 20% of the cells) | Percentage of inhibition of cell cultures; Pancreatic carcinoma; Intensity grade 1 | Percentage of inhibition of cell cultures; Renal cell carcinoma; Group 1 (expression in less than 20% of the cells) | Percentage of inhibition of cell cultures; Thyroid carcinoma (papillary type); Group 1 (expression in less than 20% of the cells)
95%: Percentage of inhibition of cell cultures; Lung carcinoma (non small cell lung carcinoma); cases with presence of ERK | Percentage of inhibition of cell cultures; Lung carcinoma (small cell type); Group 3 (expression in more than 80% of the cells) | Percentage of inhibition of cell cultures; Malignant Fibrous Histiocytoma.; Intensity grade 3 | Percentage of inhibition of cell cultures; Myeloma; Intensity grade 3 | Percentage of inhibition of cell cultures; Neuroblastoma; Group 3 (expression in more than 80% of the cells) | Percentage of inhibition of cell cultures; Non Hodgkin Lymphoma B (diffuse B cell lymphoma); cases with presence of AKT | Percentage of inhibition of cell cultures; Non Hodgkin Lymphoma T; Intensity grade 3 | Percentage of inhibition of cell cultures; Ovarian carcinoma (Adenocarcinoma); cases with presence of AKT | Percentage of inhibition of cell cultures; Pancreatic carcinoma (Adenocarcinoma); cases with presence of AKT | Percentage of inhibition of cell cultures; Renal cell carcinoma (clear cell renal cell carcinoma); cases with presence of ERK | Percentage of inhibition of cell cultures; Thyroid carcinoma (folliculary type); Intensity grade 3 | Percentage of inhibition of cell cultures; Urinary bladder carcinoma; Group 3 (expression in more than 80% of the cells)
29%: Percentage of inhibition of cell cultures; Lung carcinoma (non small cell lung carcinoma); cases without presence of ERK | Percentage of inhibition of cell cultures; Non Hodgkin Lymphoma B (diffuse B cell lymphoma); cases without presence of ERK
23%: Percentage of inhibition of cell cultures; Lung carcinoma (non small cell type); Group 1 (expression in less than 20% of the cells) | Percentage of inhibition of cell cultures; Melanoma; Intensity grade 1 | Percentage of inhibition of cell cultures; Myeloma; Group 1 (expression in less than 20% of the cells) | Percentage of inhibition of cell cultures; Non Hodgkin Lymphoma B; Group 1 (expression in less than 20% of the cells) | Percentage of inhibition of cell cultures; Non Hodgkin Lymphoma T; Group 1 (expression in less than 20% of the cells) | Percentage of inhibition of cell cultures; Ovarian carcinoma; Intensity grade 1 | Percentage of inhibition of cell cultures; Pancreatic carcinoma; Group 1 (expression in less than 20% of the cells) | Percentage of inhibition of cell cultures; Prostate carcinoma; Group 1 (expression in less than 20% of the cells) | Percentage of inhibition of cell cultures; Renal cell carcinoma; Intensity grade 1 | Percentage of inhibition of cell cultures; Urinary bladder carcinoma; Group 1 (expression in less than 20% of the cells)
53%: Percentage of inhibition of cell cultures; Neuroblastoma; Intensity grade 2 | Percentage of inhibition of cell cultures; Pancreatic carcinoma; Group 2 (expression in 20-80% of the cells) | Percentage of inhibition of cell cultures; Renal cell carcinoma; Intensity grade 2 | Percentage of inhibition of cell cultures; Thyroid carcinoma (folliculary type); Intensity grade 2 | Percentage of inhibition of cell cultures; Thyroid carcinoma (papillary type); Group 2 (expression in 20-80% of the cells)
27%: Percentage of inhibition of cell cultures; Lung carcinoma (small cell lung carcinoma); cases without presence of ERK | Percentage of inhibition of cell cultures; Non Hodgkin Lymphoma T (diffuse T cell lymphoma); cases without presence of ERK | Percentage of inhibition of cell cultures; Non Hodgkin Lymphoma T; Intensity grade 1 | Percentage of inhibition of cell cultures; Prostate carcinoma; cases without presence of ERK | Percentage of inhibition of cell cultures; Thyroid carcinoma (papillary carcinoma); cases without presence of ERK | Percentage of inhibition of cell cultures; Undifferentiated Pleomorphic Sarcoma (malignant fibrous histiocytoma grade 3); cases without presence of ERK
55%: Percentage of inhibition of cell cultures; Lung carcinoma (non small cell type); Group 2 (expression in 20-80% of the cells) | Percentage of inhibition of cell cultures; Lung carcinoma (non small cell type); Intensity grade 2 | Percentage of inhibition of cell cultures; Malignant Fibrous Histiocytoma.; Intensity grade 2 | Percentage of inhibition of cell cultures; Melanoma; Group 2 (expression in 20-80% of the cells) | Percentage of inhibition of cell cultures; Non Hodgkin Lymphoma B; Intensity grade 2 | Percentage of inhibition of cell cultures; Non Hodgkin Lymphoma T; Group 2 (expression in 20-80% of the cells) | Percentage of inhibition of cell cultures; Ovarian carcinoma; Group 2 (expression in 20-80% of the cells) | Percentage of inhibition of cell cultures; Urinary bladder carcinoma; Intensity grade 2
56%: Percentage of inhibition of cell cultures; Lung carcinoma (small cell type); Group 2 (expression in 20-80% of the cells) | Percentage of inhibition of cell cultures; Malignant Fibrous Histiocytoma.; Group 2 (expression in 20-80% of the cells) | Percentage of inhibition of cell cultures; Melanoma; Intensity grade 2 | Percentage of inhibition of cell cultures; Myeloma; Group 2 (expression in 20-80% of the cells) | Percentage of inhibition of cell cultures; Myeloma; Intensity grade 2 | Percentage of inhibition of cell cultures; Non Hodgkin Lymphoma T; Intensity grade 2 | Percentage of inhibition of cell cultures; Prostate carcinoma; Intensity grade 2 | Percentage of inhibition of cell cultures; Thyroid carcinoma (papillary type); Intensity grade 2
25%: Percentage of inhibition of cell cultures; Lung carcinoma (non small cell lung carcinoma); cases without presence of AKT | Percentage of inhibition of cell cultures; Lung carcinoma (small cell type); Intensity grade 1 | Percentage of inhibition of cell cultures; Malignant Fibrous Histiocytoma.; Intensity grade 1 | Percentage of inhibition of cell cultures; Melanoma (Nodular Melanoma); cases without presence of AKT | Percentage of inhibition of cell cultures; Myeloma; Intensity grade 1 | Percentage of inhibition of cell cultures; Neuroblastoma; Intensity grade 1 | Percentage of inhibition of cell cultures; Non Hodgkin Lymphoma T (diffuse T cell lymphoma); cases without presence of AKT | Percentage of inhibition of cell cultures; Thyroid carcinoma (folliculary type); Group 1 (expression in less than 20% of the cells) | Percentage of inhibition of cell cultures; Undifferentiated Pleomorphic Sarcoma (malignant fibrous histiocytoma grade 3); cases without presence of AKT | Percentage of inhibition of cell cultures; Urinary bladder carcinoma (transitional cell carcinoma); cases without presence of AKT | Percentage of inhibition of cell cultures; Urinary bladder carcinoma; Intensity grade 1
32%: Percentage of inhibition of cell cultures; Renal cell carcinoma (clear cell renal cell carcinoma); cases without presence of ERK
52%: Percentage of inhibition of cell cultures; Renal cell carcinoma; Group 2 (expression in 20-80% of the cells)
98%: Percentage of inhibition of cell cultures; Non Hodgkin Lymphoma B (diffuse B cell lymphoma); cases with presence of ERK
26%: Percentage of inhibition of cell cultures; Non Hodgkin Lymphoma B; Intensity grade 1 | Percentage of inhibition of cell cultures; Prostate carcinoma; cases without presence of AKT | Percentage of inhibition of cell cultures; Thyroid carcinoma (follicular carcinoma); cases without presence of ERK | Percentage of inhibition of cell cultures; Thyroid carcinoma (folliculary type); Intensity grade 1
54%: Percentage of inhibition of cell cultures; Lung carcinoma (small cell type); Intensity grade 2 | Percentage of inhibition of cell cultures; Neuroblastoma; Group 2 (expression in 20-80% of the cells) | Percentage of inhibition of cell cultures; Non Hodgkin Lymphoma B; Group 2 (expression in 20-80% of the cells) | Percentage of inhibition of cell cultures; Ovarian carcinoma; Intensity grade 2 | Percentage of inhibition of cell cultures; Pancreatic carcinoma; Intensity grade 2 | Percentage of inhibition of cell cultures; Thyroid carcinoma (folliculary type); Group 2 (expression in 20-80% of the cells) | Percentage of inhibition of cell cultures; Urinary bladder carcinoma; Group 2 (expression in 20-80% of the cells)
88%: Percentage of inhibition of cell cultures; Urinary bladder carcinoma (transitional cell carcinoma); cases with presence of ERK
91%: Percentage of inhibition of cell cultures; Urinary bladder carcinoma (transitional cell carcinoma); cases with presence of AKT
34%: Percentage of inhibition of cell cultures; Renal cell carcinoma (clear cell renal cell carcinoma); cases without presence of AKT
96%: Percentage of inhibition of cell cultures; Malignant Fibrous Histiocytoma.; Group 3 (expression in more than 80% of the cells) | Percentage of inhibition of cell cultures; Melanoma; Group 3 (expression in more than 80% of the cells) | Percentage of inhibition of cell cultures; Myeloma; Group 3 (expression in more than 80% of the cells) | Percentage of inhibition of cell cultures; Non Hodgkin Lymphoma B; Group 3 (expression in more than 80% of the cells) | Percentage of inhibition of cell cultures; Non Hodgkin Lymphoma B; Intensity grade 3 | Percentage of inhibition of cell cultures; Non Hodgkin Lymphoma T; Group 3 (expression in more than 80% of the cells) | Percentage of inhibition of cell cultures; Ovarian carcinoma (Adenocarcinoma); cases with presence of ERK | Percentage of inhibition of cell cultures; Ovarian carcinoma; Intensity grade 3 | Percentage of inhibition of cell cultures; Pancreatic carcinoma; Group 3 (expression in more than 80% of the cells) | Percentage of inhibition of cell cultures; Prostate carcinoma; Group 3 (expression in more than 80% of the cells) | Percentage of inhibition of cell cultures; Thyroid carcinoma (follicular carcinoma); cases with presence of AKT | Percentage of inhibition of cell cultures; Thyroid carcinoma (follicular carcinoma); cases with presence of ERK | Percentage of inhibition of cell cultures; Thyroid carcinoma (folliculary type); Group 3 (expression in more than 80% of the cells) | Percentage of inhibition of cell cultures; Urinary bladder carcinoma; Intensity grade 3
57%: Percentage of inhibition of cell cultures; Prostate carcinoma; Group 2 (expression in 20-80% of the cells)
97%: Percentage of inhibition of cell cultures; Lung carcinoma (non small cell type); Intensity grade 3 | Percentage of inhibition of cell cultures; Melanoma (Nodular Melanoma); cases with presence of AKT | Percentage of inhibition of cell cultures; Melanoma; Intensity grade 3 | Percentage of inhibition of cell cultures; Non Hodgkin Lymphoma T (diffuse T cell lymphoma); cases with presence of ERK | Percentage of inhibition of cell cultures; Ovarian carcinoma; Group 3 (expression in more than 80% of the cells) | Percentage of inhibition of cell cultures; Renal cell carcinoma; Intensity grade 3
